Measured values reported in the supplement of paper PMC10567573.
± gives the standard deviation.

Assay: protein stability index of a GFP-peptide fusion (GPS, HEK-293T) (PSI 1-6); higher = more stable
Settings: c terminus: a fixed tail appended
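Also: 24-mer peptide tiles fused after GFP, lentivirally expressed, FACS-sorted into six equal bins by GFP/DsRed ratio, decoded by Illumina sequencing, PSI is the read-weighted mean bin number.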

Sequence | protein stability index (treatment: DMSO) | protein stability index (treatment: MLN4924 1 uM, 8 h)
MEMYNVIMTVKEDQFSALGLDPCL [SLC6A17] | 2.45 ± 0.62 | 2.26 ± 0.15
MGQTALAGGSSSTPTPQALYPDLS [SPSB2] | 4.46 ± 0.37 | 4.66 ± 0.37
MGVNAVHWFRKGLRLHDNPALKEC [CRY1] | 2.53 ± 0.23 | 2.54 ± 0.31
MGWFNNEVGSMKIQSGAWVCYQYP [CRYBA1] | 2.74 ± 0.73 | 2.61 ± 0.29
MKDSMSAAEVGTGQYATTKGISQT [EPB41L3] | 4.75 ± 0.094 | 4.78 ± 0.44
MLLDIKTRLEQEIATYRSLLEGQD [KRT15] | 2.9 ± 0.34 | 3.07 ± 0.34
MLQATAEANNLAAAASAKDIYYNN [ATL3] | 3.15 ± 0.18 | 3.44 ± 0.38
MLTRRVLQLETVLEGVVSQIDAVG [PKD2L1] | 2.29 ± 0.49 | 2.46 ± 0.51
MPGFPDNIRPSSSGGYWVGMSTIR [APMAP] | 2.87 ± 0.38 | 2.9 ± 0.42
MPSPCSCMSFNPETRRLSIGLDNG [WDFY2] | 3.19 ± 0.13 | 3.29 ± 0.25
MQAQASIEGAPEVTMSSLFKHILR [SLC25A25] | 2.36 ± 0.32 | 2.14 ± 0.13
MQLKSPMPSSTTQKDSYQPPGNVY [SPAG8] | 4.13 ± 0.17 | 4.14 ± 0.16
MRARDSVYHIECFRCSVCSRQLLP [ISL2] | 2.2 ± 0.24 | 2.22 ± 0.35
MSFPHFGHPYRGASQFLASASSST [IRX6] | 3.25 ± 0.21 | 3.13 ± 0.25
MSIMGNVLRFLPAFVRMKQLIEEG [GFOD1] | 2.31 ± 0.43 | 2.42 ± 0.28
MSTFRQEDVEDHYEMGEELGSGQF [DAPK3] | 5.43 ± 0.22 | 5.33 ± 0.48
MSVILSMDNNRNLDLDSIIDEVRT [KRT71] | 2.61 ± 0.22 | 2.52 ± 0.59
MTLAANHELMLRFKDEYKSENIKL [CCDC89] | 3.44 ± 0.17 | 3.72 ± 0.25
MTTDFDLSLDNSPLLQSIHQLDFV [TRIM9] | 2.7 ± 0.33 | 2.71 ± 0.24
MTVEKEAPDAHFTVDKQNISLWPR [CD207] | 3.58 ± 0.36 | 3.86 ± 0.5
MVANILNNEAFMNQEITKAFHVRR [RHOBTB2] | 2.53 ± 0.27 | 2.5 ± 0.27
MVGLILGPFGINHGIELHSDVVEY [PCMTD1] | 2.68 ± 0.65 | 2.85 ± 0.52

Sequence | protein stability index (treatment: DMSO) | protein stability index (treatment: MLN4924 1 uM, 8 h)
MVGPLAQDPQSPMAGLRWLDSWDF [POMT2] | 2.66 ± 0.42 | 2.75 ± 0.41
MVRRLKMVVKTFMDMDQDSEEEKE [PDS5B] | 2.73 ± 0.38 | 3.13 ± 0.26
MYASSAPPSEPVPSLEDISCNTWP [TBX5] | 3.95 ± 0.17 | 3.97 ± 0.22
NCKRERDARVKRKLRGPEPAATEA [TBX6] | 4.84 ± 0.42 | 4.66 ± 0.22
NCPEFPPPDRTLGCWATDAAPAAG [RSPH3] | 4.4 ± 0.4 | 4.47 ± 0.3
NCRLSEGDVMHLSQSPSVSQLSVL [PRAME] | 2.29 ± 0.63 | 2.37 ± 0.065
NEDEDLGPCEGPSKEDKDLDSSEG [SPANXN3] | 5.66 ± 0.21 | 5.54 ± 0.17
NEKIYELRVMETKPDKAVSIIECD [UFD1] | 4.33 ± 0.11 | 4.28 ± 0.16
NEPSQAETAVEGDPSGVSGATVGR [C18orf25] | 5.66 ± 0.22 | 5.66 ± 0.11
NESMKAYHNSPAYLAYINAKSRAE [SMARCE1] | 4.42 ± 0.27 | 4.26 ± 0.49
NEYVAIKLEPIKSRAPQLHLEYRF [CSNK1G1] | 2.31 ± 0.3 | 2.53 ± 0.36
NFPQCVLEISDQEVLEWYTAKDFI [EFHC1] | 2.51 ± 0.33 | 2.6 ± 0.45
NGEARQLPEDDGLEQDLQQVMVSG [ARFIP2] | 5.36 ± 0.22 | 5.49 ± 0.2
NHAIDIICGFLKERCFRGSSYPVC [OAS1] | 2.88 ± 0.38 | 2.6 ± 0.44
NICENTEGAIAVHCKAGLGRTGTL [CDC14A] | 3.13 ± 0.22 | 3.21 ± 0.3
NIPGNSTLITAVELERFVNLHSLA [FBXO33] | 2.27 ± 0.24 | 2.23 ± 0.37
NIVEYLIQEQPGQEQVAGGEAQPG [FEM1A] | 4.33 ± 0.25 | 4.15 ± 0.47
NIYYYLEDDSMSVIEPVVENSGIL [EFHC1] | 2.45 ± 0.43 | 2.41 ± 0.42
NKAAVMVHQLSKKEASRHAIMRSP [CTNNB1] | 3.86 ± 0.16 | 3.8 ± 0.2
NKLLLSIIILLELAILGGLVYYKF [VTI1B] | 2.96 ± 0.57 | 2.84 ± 0.49
NLHRVAAHELGHSLGLSHSTDIGA [MMP1] | 3.48 ± 0.33 | 3.57 ± 0.33
NLLSPLLTGTESPFDLEQQWQDLM [NFE2L1] | 3.12 ± 0.21 | 3.17 ± 0.041

Sequence | protein stability index (treatment: DMSO) | protein stability index (treatment: MLN4924 1 uM, 8 h)
NMHLNLRPFDCPVCNKKFKMKHHL [ZBTB22] | 2.4 ± 0.2 | 2.81 ± 0.35
NMSKEDAMVEFVKLLNRCCHLFST [ACBD3] | 2.24 ± 0.16 | 2.29 ± 0.39
NNLEPILEGYISNLRKQLETLSGD [KRT71] | 3.07 ± 0.26 | 3.18 ± 0.35
NQNRAYVTLAAHFLGLGAPNCLSM [ZBED1] | 3.07 ± 0.95 | 3.08 ± 0.59
NSTSVKKKSSRNIFSIVFVFFVCF [P2RY14] | 2 ± 0.64 | –
NSWMGSQGPMSQRRENYGVPPRRA [RBMY1A1] | 4.65 ± 0.26 | 4.28 ± 0.16
NTRGTGSSSSGVLMVGPNFRVGKK [CSNK1G3] | 4.48 ± 0.2 | 4.51 ± 0.18
NVIDRMKESSPSGSKSQRYSGAYG [CHCHD3] | 4.13 ± 0.4 | 4.13 ± 0.15
PAEQAFWCLVQICEKYLPGYYSEK [TBC1D10A] | 3.37 ± 0.55 | 3.46 ± 0.48
PAFIIVKLSPLRDRLVVTECQLTH [ZSWIM9] | 3.33 ± 0.57 | 3.02 ± 0.54
PAHKNLNKQAYDLAKALLKRTAQA [PDS5B] | 2.22 ± 0.16 | 2.51 ± 0.18
PAISITENVLHFKAQGHGAKGDNV [HACD3] | 4.54 ± 0.095 | 4.57 ± 0.37
PAKAANRTPPKSPGDPSKDRAAKR [TPPP] | 5.22 ± 0.38 | 5.21 ± 0.32
PAPKSTYECRCIGEEKEMWNFGEK [TIA1] | 3.86 ± 0.23 | 3.85 ± 0.33
PAPSPHEEPCSPGLLQDQGSGLSS [CBY2] | 5.31 ± 0.22 | 5.194 ± 0.04
PASGSGADSEPARHIFSFSWLNSL [TRIM55] | 2.36 ± 0.16 | 2.5 ± 0.21
PASGSTFRGRRDVSGSWERDQQVE [RETREG3] | 4.67 ± 0.22 | 4.86 ± 0.28
PATEEQEAASSSSTLVEVTLGEVP [MAGEA3] | 5.52 ± 0.17 | 5.51 ± 0.17
PDVRPPLGRGLVGGQEEASQEAGL [SEPHS2] | 5.27 ± 0.14 | 5.31 ± 0.18
PEGSLSQTMAGSSPNTPQPVPEQS [FAM104A] | 5.47 ± 0.14 | 5.45 ± 0.12
PEKKSDQPMCEEHEEERINIYCLN [TRIM55] | 4.79 ± 0.12 | 4.77 ± 0.35
